Source: patent US20240159767A1

Target: PKA substrate fused to MinD (phosphorylated form) (Escherichia coli)
Assay: power ratio of live-cell fluorescence oscillations, saturating isoprenaline

FHA1-mCerulean (from UniProt P22216 22-162)
fold increase of the power ratio of the FHA1 signal to the MinDE carrier after a saturating dose of isoprenaline against resting cells: < 7 fold
